Assay results as given in the supplement of paper PMC5998384.

Experiments:
[1] = tested on: HeLa Kyoto; experiment: solubility in G1/S (NP-40 vs SDS abundance) (log2 ratio); higher = more soluble; details: cell cycle stage: G1/S
[2] = tested on: HeLa Kyoto; experiment: melting temperature (median over replicates), in situ; higher = more thermally stable
[3] = tested on: HeLa Kyoto; experiment: solubility change mitosis vs G1/S (difference of NP-40 vs SDS log2 ratios) (log2 ratio difference); higher = more soluble in mitosis
[4] = tested on: HeLa Kyoto; experiment: thermal stability score vs G1/S (z-score of summed log2 fold changes over temperatures); higher = more thermally stable than in G1/S
[5] = cell cycle stage: early G1 (4.5 h after nocodazole release)
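Wherever melting temperature (median over replicates), in situ is given: HeLa Kyoto cells synchronized by double thymidine or nocodazole block, proteins quantified by TMT10plex mass spectrometry, three independent biological replicates.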
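Wherever solubility change mitosis vs G1/S (difference of NP-40 vs SDS log2 ratios) is given: synchronized HeLa Kyoto cells (double thymidine block for G1/S, nocodazole release for mitosis), protein amounts in NP-40 versus SDS lysates quantified by mass spectrometry, three biological replicates.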
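Wherever solubility in G1/S (NP-40 vs SDS abundance) is given: HeLa Kyoto cells arrested at G1/S by double thymidine block, proteins quantified by TMT10plex mass spectrometry in mild NP-40 versus SDS extracts, three biological replicates.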
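Wherever thermal stability score vs G1/S (z-score of summed log2 fold changes over temperatures) is given: synchronized HeLa Kyoto cells, proteins quantified by TMT10plex mass spectrometry, three biological replicates, mitosis taken 0.5 h after nocodazole release, G1/S directly after double thymidine block.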

Chain of PPP2R5E (chain, as listed by the source): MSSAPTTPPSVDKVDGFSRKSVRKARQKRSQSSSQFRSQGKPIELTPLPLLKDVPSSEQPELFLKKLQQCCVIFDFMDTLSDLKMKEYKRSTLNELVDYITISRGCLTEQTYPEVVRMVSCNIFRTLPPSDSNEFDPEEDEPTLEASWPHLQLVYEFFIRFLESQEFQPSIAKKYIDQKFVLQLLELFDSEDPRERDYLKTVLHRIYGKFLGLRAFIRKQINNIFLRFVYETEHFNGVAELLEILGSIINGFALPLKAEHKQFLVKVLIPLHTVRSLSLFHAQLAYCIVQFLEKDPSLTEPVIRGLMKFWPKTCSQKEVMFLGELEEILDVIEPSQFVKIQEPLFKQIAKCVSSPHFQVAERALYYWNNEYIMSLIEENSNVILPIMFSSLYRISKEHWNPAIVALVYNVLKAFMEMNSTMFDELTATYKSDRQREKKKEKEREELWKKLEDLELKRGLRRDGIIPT
Chain of RBPJ (chain, as listed by the source): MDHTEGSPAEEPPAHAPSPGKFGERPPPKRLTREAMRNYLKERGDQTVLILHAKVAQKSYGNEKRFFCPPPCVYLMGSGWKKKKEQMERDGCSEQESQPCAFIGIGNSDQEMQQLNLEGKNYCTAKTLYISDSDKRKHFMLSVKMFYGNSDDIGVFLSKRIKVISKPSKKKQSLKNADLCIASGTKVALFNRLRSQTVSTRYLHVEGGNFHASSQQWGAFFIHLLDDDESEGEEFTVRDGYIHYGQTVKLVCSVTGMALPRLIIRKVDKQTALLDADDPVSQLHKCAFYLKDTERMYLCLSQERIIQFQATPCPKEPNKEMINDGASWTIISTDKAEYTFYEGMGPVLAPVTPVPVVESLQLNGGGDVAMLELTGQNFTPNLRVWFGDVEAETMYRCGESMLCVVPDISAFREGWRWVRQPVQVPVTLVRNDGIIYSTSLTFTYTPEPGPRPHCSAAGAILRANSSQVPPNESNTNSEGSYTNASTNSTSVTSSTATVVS
Chain of PSME2 (chain, as listed by the source): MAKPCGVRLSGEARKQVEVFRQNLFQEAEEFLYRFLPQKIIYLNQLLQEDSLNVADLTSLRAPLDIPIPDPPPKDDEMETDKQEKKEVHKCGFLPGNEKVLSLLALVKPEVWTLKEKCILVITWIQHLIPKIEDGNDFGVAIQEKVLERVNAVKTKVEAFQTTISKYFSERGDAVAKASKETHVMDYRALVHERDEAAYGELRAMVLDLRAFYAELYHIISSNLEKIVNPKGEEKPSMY
Chain of SLC38A10 (chain, as listed by the source): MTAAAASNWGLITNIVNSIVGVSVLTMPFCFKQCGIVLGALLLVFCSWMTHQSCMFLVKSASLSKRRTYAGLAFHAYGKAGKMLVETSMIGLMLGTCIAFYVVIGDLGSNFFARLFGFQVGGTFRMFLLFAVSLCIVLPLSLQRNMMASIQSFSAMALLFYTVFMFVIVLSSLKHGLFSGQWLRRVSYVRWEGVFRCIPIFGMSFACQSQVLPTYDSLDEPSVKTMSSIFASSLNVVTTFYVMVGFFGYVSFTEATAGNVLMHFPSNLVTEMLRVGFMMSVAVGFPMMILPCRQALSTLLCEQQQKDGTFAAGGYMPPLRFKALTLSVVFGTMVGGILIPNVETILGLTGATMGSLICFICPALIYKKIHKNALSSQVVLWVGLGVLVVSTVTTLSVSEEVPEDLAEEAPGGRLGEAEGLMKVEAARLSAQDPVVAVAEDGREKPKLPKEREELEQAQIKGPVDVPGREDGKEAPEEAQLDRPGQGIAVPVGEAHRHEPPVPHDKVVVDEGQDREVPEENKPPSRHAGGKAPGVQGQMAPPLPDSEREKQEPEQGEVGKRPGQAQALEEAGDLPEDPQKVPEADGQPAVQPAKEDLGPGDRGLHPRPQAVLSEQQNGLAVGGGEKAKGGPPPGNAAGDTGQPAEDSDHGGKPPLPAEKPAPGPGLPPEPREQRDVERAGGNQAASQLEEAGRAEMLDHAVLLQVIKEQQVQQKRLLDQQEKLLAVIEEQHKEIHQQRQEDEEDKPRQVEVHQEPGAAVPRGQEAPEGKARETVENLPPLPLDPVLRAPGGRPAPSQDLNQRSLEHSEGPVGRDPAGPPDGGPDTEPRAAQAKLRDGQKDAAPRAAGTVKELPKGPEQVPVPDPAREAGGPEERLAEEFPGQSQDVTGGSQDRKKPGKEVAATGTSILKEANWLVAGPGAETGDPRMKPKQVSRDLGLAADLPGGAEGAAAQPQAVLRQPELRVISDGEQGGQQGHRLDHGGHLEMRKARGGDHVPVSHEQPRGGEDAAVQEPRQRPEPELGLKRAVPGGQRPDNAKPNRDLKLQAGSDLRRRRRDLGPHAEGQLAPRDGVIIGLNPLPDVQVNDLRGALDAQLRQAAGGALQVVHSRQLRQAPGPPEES
Chain of OCRL (chain, as listed by the source): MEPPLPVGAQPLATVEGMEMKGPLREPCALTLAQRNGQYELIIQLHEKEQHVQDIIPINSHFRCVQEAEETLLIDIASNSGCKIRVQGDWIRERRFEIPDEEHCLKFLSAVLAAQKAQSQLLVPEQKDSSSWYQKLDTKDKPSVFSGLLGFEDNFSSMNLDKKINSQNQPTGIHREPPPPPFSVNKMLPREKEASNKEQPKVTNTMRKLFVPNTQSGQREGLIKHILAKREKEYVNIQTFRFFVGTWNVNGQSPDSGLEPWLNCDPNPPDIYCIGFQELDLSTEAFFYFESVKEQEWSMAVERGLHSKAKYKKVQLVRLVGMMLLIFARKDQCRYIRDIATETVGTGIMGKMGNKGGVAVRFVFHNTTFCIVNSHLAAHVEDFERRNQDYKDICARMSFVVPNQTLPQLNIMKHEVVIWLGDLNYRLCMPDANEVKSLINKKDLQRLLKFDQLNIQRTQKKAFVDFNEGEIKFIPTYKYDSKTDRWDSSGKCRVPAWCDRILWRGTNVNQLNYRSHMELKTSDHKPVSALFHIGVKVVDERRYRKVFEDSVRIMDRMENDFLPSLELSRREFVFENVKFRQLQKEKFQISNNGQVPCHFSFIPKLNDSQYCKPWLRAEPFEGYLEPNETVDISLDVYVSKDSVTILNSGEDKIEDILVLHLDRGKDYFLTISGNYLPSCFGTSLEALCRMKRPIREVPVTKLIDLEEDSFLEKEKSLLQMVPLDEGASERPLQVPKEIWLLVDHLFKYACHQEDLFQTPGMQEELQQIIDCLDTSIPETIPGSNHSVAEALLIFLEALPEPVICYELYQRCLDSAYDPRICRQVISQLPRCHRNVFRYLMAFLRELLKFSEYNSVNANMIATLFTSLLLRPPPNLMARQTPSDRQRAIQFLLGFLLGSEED
Chain of RSBN1 (chain, as listed by the source): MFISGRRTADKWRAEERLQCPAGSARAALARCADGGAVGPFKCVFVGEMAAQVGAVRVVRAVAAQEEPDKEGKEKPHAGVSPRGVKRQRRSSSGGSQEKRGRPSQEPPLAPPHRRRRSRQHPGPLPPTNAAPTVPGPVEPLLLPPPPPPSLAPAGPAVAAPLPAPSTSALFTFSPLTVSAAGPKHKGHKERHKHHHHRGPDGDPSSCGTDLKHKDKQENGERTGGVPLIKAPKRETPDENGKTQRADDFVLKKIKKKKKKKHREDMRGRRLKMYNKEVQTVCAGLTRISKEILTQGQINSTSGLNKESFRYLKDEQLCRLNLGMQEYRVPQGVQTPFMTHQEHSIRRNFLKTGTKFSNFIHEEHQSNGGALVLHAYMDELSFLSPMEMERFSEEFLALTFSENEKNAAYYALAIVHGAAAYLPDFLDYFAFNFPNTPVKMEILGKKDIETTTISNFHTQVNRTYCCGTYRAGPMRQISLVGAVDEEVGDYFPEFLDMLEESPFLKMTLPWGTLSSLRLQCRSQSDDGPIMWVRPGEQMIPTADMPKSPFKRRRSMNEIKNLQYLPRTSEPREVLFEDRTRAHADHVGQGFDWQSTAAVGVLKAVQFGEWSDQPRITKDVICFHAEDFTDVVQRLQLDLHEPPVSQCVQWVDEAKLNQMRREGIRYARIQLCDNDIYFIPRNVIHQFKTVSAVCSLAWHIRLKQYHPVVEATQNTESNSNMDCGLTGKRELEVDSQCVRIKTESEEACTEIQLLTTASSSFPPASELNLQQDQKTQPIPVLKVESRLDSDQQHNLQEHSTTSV
Chain of SLC7A1 (chain, as listed by the source): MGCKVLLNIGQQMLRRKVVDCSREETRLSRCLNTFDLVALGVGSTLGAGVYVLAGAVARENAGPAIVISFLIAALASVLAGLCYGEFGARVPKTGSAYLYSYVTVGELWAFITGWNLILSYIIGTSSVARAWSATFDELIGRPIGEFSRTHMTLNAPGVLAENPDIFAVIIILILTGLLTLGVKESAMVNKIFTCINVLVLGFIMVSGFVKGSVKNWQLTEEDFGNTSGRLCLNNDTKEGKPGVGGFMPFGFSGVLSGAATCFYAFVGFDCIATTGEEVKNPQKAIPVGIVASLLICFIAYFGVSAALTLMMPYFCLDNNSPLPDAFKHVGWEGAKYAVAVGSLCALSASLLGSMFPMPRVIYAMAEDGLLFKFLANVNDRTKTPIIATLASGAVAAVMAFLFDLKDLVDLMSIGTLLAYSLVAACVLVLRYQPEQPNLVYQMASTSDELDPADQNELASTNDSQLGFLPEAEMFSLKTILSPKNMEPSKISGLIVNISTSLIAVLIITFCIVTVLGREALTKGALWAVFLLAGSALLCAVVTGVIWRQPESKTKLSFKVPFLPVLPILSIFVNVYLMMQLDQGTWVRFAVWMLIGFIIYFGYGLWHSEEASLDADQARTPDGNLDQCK
Chain of REEP5 (chain, as listed by the source): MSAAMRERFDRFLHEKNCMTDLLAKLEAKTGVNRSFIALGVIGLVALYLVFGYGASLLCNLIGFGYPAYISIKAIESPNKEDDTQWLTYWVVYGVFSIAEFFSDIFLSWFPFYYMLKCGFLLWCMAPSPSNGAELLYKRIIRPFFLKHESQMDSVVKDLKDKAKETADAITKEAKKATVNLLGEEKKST

Substance	solubility in G1/S (log2) [1]	melting temperature ([2]; cell cycle stage: G1/S)	melting temperature ([2]; cell cycle stage: mitosis)	solubility change mitosis (log2) [3]	thermal stability score [4, 5]	thermal stability score ([4]; cell cycle stage: mitosis)
NFAT5	-0.0162	50 °C	50.6 °C	-0.176	0.898	1.21
NUP98	-0.162	48.4 °C	48.6 °C	0.26	-1.52	-1.57
NUP188	-0.299	51 °C	49 °C	-0.108	-2.04	-2.93
OCRL	-0.137	51.4 °C	51.8 °C	-0.122	-0.419	-0.472
OLA1	0.346	51.3 °C	51.2 °C	-0.109	1.23	0.644
PIEZO1	-0.227	57.1 °C	56.5 °C	-0.0922	-1.8	-2.23
PIK3C2B	-0.164	50.1 °C	49.7 °C	-0.142	-0.0552	-0.413
PKN1	0.0374	49.9 °C	50.6 °C	-0.112	0.284	0.47
PLXNA1	-0.0498	53.8 °C	52.5 °C	0.0188	-1.69	-1.65
PPP2R5D	-0.0693	48.2 °C	48.4 °C	0.0185	1.54	3.42
PPP2R5E	-0.065	49.9 °C	49.7 °C	-0.171	0.446	0.409
PROSC	0.225	48.8 °C	49.7 °C	-0.0262	1.09	0.951
PRRC2B	-0.236	51.9 °C	52.2 °C	0.078	1.22	3.15
PSIP1	0.071	50.8 °C	52.2 °C	0.557	-1.03	-2.11
PSME2	0.142	52.8 °C	53.8 °C	0.0782	-0.487	2.4
PSME4	-0.391	52.1 °C	52.2 °C	-0.0943	-0.516	-0.817
PTPN23	0.216	49.6 °C	49.2 °C	-0.134	-1.39	-2.28
RAB1A	0.166	60.3 °C	60.6 °C	-0.093	-1.51	-4.28
RAB1B	0.0965	57.8 °C	58 °C	-0.0321	-0.394	-2.04
RAB35	-0.0302	56.3 °C	56.2 °C	0.0226	-0.529	-1.17
RB1CC1	-0.0448	51.4 °C	50.2 °C	-0.219	-0.0649	0.267
RBBP6	-0.908	49 °C	49.9 °C	0.511	-2.06	3.66
RBPJ	-0.198	54.8 °C	54.4 °C	0.039	0.21	-0.976
REEP5	-0.148	55.4 °C	57.6 °C	-0.114	-0.45	-0.719

Substance	solubility in G1/S (log2) [1]	melting temperature ([2]; cell cycle stage: G1/S)	melting temperature ([2]; cell cycle stage: mitosis)	solubility change mitosis (log2) [3]	thermal stability score [4, 5]	thermal stability score ([4]; cell cycle stage: mitosis)
RHOB	0.157	57.2 °C	58.2 °C	-0.114	-0.544	-0.587
RHOT2	-0.00866	50.7 °C	50.5 °C	-0.0417	-0.0452	-0.352
RNF213	-0.346	49.9 °C	49.8 °C	-0.11	0.57	1.78
ROBO1	0.177	55.3 °C	54.4 °C	-0.145	-4.69	-6.19
RPE	0.306	56 °C	55.2 °C	0.356	-0.485	-1.28
RPIA	0.208	56.4 °C	55.2 °C	-0.157	-0.283	-2.14
RSBN1	-0.345	–	53.1 °C	0.0741	-1.37	-1.2
SBF1	-0.118	50.9 °C	50.4 °C	-0.108	0.301	-0.247
SETX	-0.385	49.9 °C	51 °C	0.0473	0.199	1.04
SIRT5	0.419	50.9 °C	50.9 °C	-0.233	-0.174	0.987
SLC7A1	-0.215	61.5 °C	60.9 °C	-0.171	-2.64	-4.52
SLC38A10	-0.351	54.2 °C	54.7 °C	0.284	2.59	0.548
SMARCA2	-0.129	47.8 °C	49.7 °C	-0.051	2.43	4.33
SON	-1.78	47.4 °C	49.4 °C	1.3	0.322	4.26
SORCS2	0.0123	53.7 °C	50.4 °C	-0.162	-2.23	-3.21
SPCS2	0.173	51.9 °C	52.8 °C	-0.0337	-0.361	-0.329
SPEN	-0.619	49 °C	50.4 °C	0.433	1.63	4.49
SRGAP1	0.2	50.5 °C	51.2 °C	-0.1	0.466	0.773
SRSF6	-0.646	49.8 °C	50.6 °C	0.385	-0.248	-2.07
STK38L	-0.0449	50.2 °C	49.3 °C	-0.074	0.62	1.53
STRIP1	0.0221	51.3 °C	49.6 °C	-0.214	0.575	0.412
SUCLG1	0.168	50.8 °C	50.9 °C	-0.0912	-0.306	-0.375
SVEP1	-0.163	54.1 °C	55.1 °C	-0.0333	1.39	1.6
